Data on 13 molecules can be found in patent US20240182556A1 (OPSIDIO, published 2024).

Assay [1] has as its target T1, PE9413, C-terminal biotinylated peptide mapping on Exon6 of the SCF molecule (SCF248) (C-terminal biotin).
T1 construct: also called C-terminal biotinylated PE9413; C-ter PE9413
T1 peptide: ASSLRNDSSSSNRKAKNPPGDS
Briefly: yeast-displayed scFv, flow cytometry titration of biotinylated peptide (FIG. 16D). The procedure: Yeast display methods were conducted as described by Ferrara et al. Briefly, cells were induced in induction media overnight at 20° C. 10⁵ induced cells were washed twice with wash buffer (PBS supplemented with 0.5% BSA) and incubated at room temperature with the biotinylated antigen diluted in PBS. To assess binding of the scFv, a C-terminal biotinylated peptide mapping on Exon6 of the SCF molecule was used (referred to herein as “PE9413”). […] The induced yeast population was stained with biotinylated PE9413 at different concentrations ranging from 50 nM to 2 μM (0 nM, 50 nM, 100 nM, 250 nM, 500 nM, 750 nM, 1000 nM, or 2000 nM). Volumes and incubation times were carefully adjusted according to parameters described in [3]. After the incubation with the target peptide, the yeast cells were washed twice with cold wash buffer and subsequently incubated at 4° C. for an additional 30 minutes with fluorescently labelled streptavidin (Streptavidin-AlexaFlu633), to detect binding of the biotinylated PE9413, and with the labelled anti-SV5 (anti-SV5-PE), to detect the scFv display levels on yeast cells. Following 2 washes with cold yeast wash buffer, the cells were resuspended in cold PBS and analyzed in the flow cytometer (FIG. 1).
The FACS sorted population was sorted kinetically to find clones with an improved Koff compared to the parenteral scFv. […]
In general terms: A flow cytometer gives signals particle by particle.

For assay [2], the target named is T1, PE9413, C-terminal biotinylated peptide …. The assay is described as follows: yeast-displayed scFv, flow cytometry titration of biotinylated peptide.
Assay [3] deals with T2, N-terminal biotinylated PE9413 (not fully specified; N-terminal biotin).
T2 construct: also called PE9411; N-ter PE9413
T2 peptide: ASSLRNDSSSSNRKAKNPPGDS
Briefly: yeast-displayed scFv, flow cytometry titration of N-terminal biotinylated peptide. The procedure:
The affinity of the 12 best clones for the N-terminal biotinylated target peptide […] was also evaluated. Each clone was incubated with increasing amounts of N-terminal biotinylated PE9413, and stained with a fluorescently labeled anti-streptavidin antibody. Binding of the clone to N-terminal biotinylated PE9413 was analyzed by flow cytometry. A plot of concentration of PE9413 versus the median fluorescent signal of the yeast cell population that bound to PE9413 was used to estimate the binding affinity (KD) of each clone to N-terminal biotinylated PE9413. The tested clones were confirmed to have improved affinities over the parental antibody 5H10 against the target sequence PE9413, regardless of the biotinylation modification, as reported in Table A3 and FIG. 12.

In assay [4] the target is T1, PE9413, C-terminal biotinylated peptide …. The assay is described as follows: yeast-displayed scFv, flow cytometry titration of biotinylated peptide. The protocol:
The binding of the selected 48 clones described above to 170 nM of C-terminal biotinylated PE9413 was evaluated. The 24 clones with the highest binding signal were further evaluated for binding affinity. Each clone was incubated with increasing amounts of biotinylated PE9413, and stained with a fluorescently labeled anti-streptavidin antibody. Binding of the clone to PE9413 was analyzed by flow cytometry. A plot of concentration of PE9413 versus the median fluorescent signal of the yeast cell population that bound to PE9413 was used to estimate the binding affinity (KD) of each clone to C-terminal biotinylated PE9413. […]

For assay [5] the target is unchanged. Described as above. The procedure:
The binding of the selected 48 clones described above to 170 nM of C-terminal biotinylated PE9413 was evaluated. The 24 clones with the highest binding signal were further evaluated for binding affinity. Each clone was incubated with increasing amounts of biotinylated PE9413, and stained with a fluorescently labeled anti-streptavidin antibody. Binding of the clone to PE9413 was analyzed by flow cytometry. A plot of concentration of PE9413 versus the median fluorescent signal of the yeast cell population that bound to PE9413 was used to estimate the binding affinity (KD) of each clone to C-terminal biotinylated PE9413.

B1: parental humanized 5H10 VK3/VH1 scFv (VH-linker-VL-SV5tag) displayed on yeast (scFv, V domains shown)
VH: QVQLVQSGAELKKPGSSVKISCKSSGYAFSSYWMNWVKQRPGQGLEWIGQIYPGDGDTHYNGKFKGKATLTADKSTSTAYMELSSLTSEDSAVYFCSSSNWVGSYWGQGTLVTVSS
VL: DVVMTQSPLSLPVTLGQPASISCKSSQSLLESDGKTYLNWLQQRPGQSPRRLIYLVSRLDSGVPDRFSGSGSGTDFTLKISRVEAEDVGVYYCWQGTHLPQTFGGGTKVEIK
notes: also called parental scFv; parental antibody; not shown: linker; SV5 tag
Usually Kd stands for the free concentration of one partner at which half of the binding sites on the other are occupied at equilibrium, for simple one-to-one binding. Take B1: the results for the Kd in assay [1] and in assay [2] were 232 nM and 174 nM, respectively.

B2: A104P scFv displayed on yeast (scFv, V domains shown)
VH: QVQLVQSGAELKKPGSSVKISCKSSGYAFSSQWMNWVKQRPGQGLEWIGQIYPEDGDTHYNGKFKGKATLTADKSTSTAYMELSSLTSEDSAVYFCSSSNWVGSYWGQGTLVTVSS
VL: DVVMTQSPLSLPVTLGQPASISCKSSQSLLEEDGNTYLNWLQQRPGQSPRRLIYLVDRLDSGVPDRFSGSGSGTDFTLKISRVEAEDVGVYYCWQGTDLPQTFGGGTKVEIK
notes: Aga2-anchored, VH-VL orientation; not shown: linker; SV5 tag
On to B2, for which the Kd was found to be 5.85 nM in assay [3], 3.64 nM in assay [4] and 3.64 nM in assay [5].

B3: H74P scFv displayed on yeast (scFv, V domains shown)
VH: QVQLVQSGAELKKPGSSVKISCKSSGYAFSSQWMNWVKQRPGQGLEWIGQIYPEDGDTHYNGKFKGKATLTADKSTSTAYMELSSLTSEDSAVYFCSSSNWVGSYWGQGTLVTVSS
VL: DVVMTQSPLSLPVTLGQPASISCKSSQSLLEEDGNTYLNWLQQRPGQSPRRLIYLVDRLDLGVPDRFSGSGSGTDFTLKISRVEAEDVGVYYCWQGSHLPQTFGGGTKVEIK
notes: as for B2
As to B3, the Kd in assay [3] was determined as 4.9 nM; in assay [4] it was 3.84 nM; in assay [5], 3.84 nM.

B4: F54P scFv displayed on yeast (scFv, V domains shown)
VH: QVQLVQSGAELKKPGSSVKISCKSSGYAFSSQWMNWVKQRPGQGLEWIGQIYPEDGDTHMNGKFKTKATLTADKSTSTAYMELSSLTSEDSAVYFCSSSNWVGSYWGQGTLVTVSS
VL: DVVMTQSPLSLPVTLGQPASISCKSSQSLLEEDGNTYLNWLQQRPGQSPRRLIYLVDRLDSGVPDRFSGSGSGTDFTLKISRVEAEDVGVYYCWQGTDLPQTFGGGTKVEIK
notes: as for B2
As for B4, the values for the Kd in assay [3], in assay [4] and in assay [5] were 5.66 nM, 4.09 nM and 4.09 nM, respectively.

B5: A84P scFv displayed on yeast (scFv, V domains shown)
VH: QVQLVQSGAELKKPGSSVKISCKSSGYAFSSQWMNWVKQRPGQGLEWIGQIYPEDGDTHMNGKFKGKATLTADKSTSTAYMELSSLTSEDSAVYFCSSSNWVGSYWGQGTLVTVSS
VL: DVVMTQSPLSLPVTLGQPASISCKSSQSLLEEDGNTYLNWLQQRPGQSPRRLIYLVDRLDIGVPDRFSGSGSGTDFTLKISRVEAEDVGVYYCWQGTDLPQTFGGGTKVEIK
notes: as for B2
With B5, the results for the Kd in assay [3], in assay [4] and in assay [5] were 3.93 nM, 2.52 nM and 2.52 nM, respectively.

B6: D44P scFv displayed on yeast (scFv, V domains shown)
VH: QVQLVQSGAELKKPGSSVKISCKSSGYAFSSQWMNWVKQRPGQGLEWIGQIYPEDGDIHYNGKFKGKATLTADKSTSTAYMELSSLTSEDSAVYFCSSSNWVGSYWGQGTLVTVSS
VL: DVVMTQSPLSLPVTLGQPASISCKSSQSLLEEDGNTYLNWLQQRPGQSPRRLIYLVDRLDSGVPDRFSGSGSGTDFTLKISRVEAEDVGVYYCWQGSHLPQTFGGGTKVEIK
notes: as for B2
As for B6, the Kd amounted to 4.61 nM in assay [3], 4.18 nM in assay [4] and 4.18 nM in assay [5].

B7: A64P scFv displayed on yeast (scFv, V domains shown)
VH: QVQLVQSGAELKKPGSSVKISCKSSGYAFSSNWMNWVKQRPGQGLEWIGQIYPEDGDTHYNGKFKGKATLTADKSTSTAYMELSSLTSEDSAVYFCSSSNWVGSYWGQGTLVTVSS
VL: DVVMTQSPLSLPVTLGQPASISCKSSQSLLEEDGNTYLNWLQQRPGQSPRRLIYLVNRLDDGVPDRFSGSGSGTDFTLKISRVEAEDVGVYYCWQGTDLPQTFGGGTKVEIK
notes: as for B2
In the case of B7, the equilibrium dissociation constant (Kd) stood at 5.23 nM in assay [3], 3.29 nM in assay [4] and 3.29 nM in assay [5].

B8: B124P scFv displayed on yeast (scFv, V domains shown)
VH: QVQLVQSGAELKKPGSSVKISCKSSGYAFSSNWMNWVKQRPGQGLEWIGQIYPEDGDTHYNDKFKGKATLTADKSTSTAYMELSSLTSEDSAVYFCSSSNWVGSYWGQGTLVTVSS
VL: DVVMTQSPLSLPVTLGQPASISCKSSQSLLEQDGNTYLNWLQQRPGQSPRRLIYLVDRLDSGVPDRFSGSGSGTDFTLKISRVEAEDVGVYYCWQGTDLPQTFGGGTKVEIK
notes: as for B2
For B8, the Kd was found to be 5 nM in assay [3], 3.82 nM in assay [4] and 3.82 nM in assay [5].

B9: G104P scFv displayed on yeast (scFv, V domains shown)
VH: QVQLVQSGAELKKPGSSVKISCKSSGYAFSSQWMNWVKQRPGQGLEWIGQIYPGDGDTHMNGKFKGKATLTADKSTSTAYMELSSLTSEDSAVYFCSSSNWVGSYWGQGTLVTVSS
VL: DVVMTQSPLSLPVTLGQPASISCKSSQSLLEEDGNTYLNWLQQRPGQSPRRLIYLVDRLDDGVPDRFSGSGSGTDFTLKISRVEAEDVGVYYCWQGTDLPQTFGGGTKVEIK
notes: as for B2
The molecule B9 yielded a Kd in assay [5] of 7.09 nM.

B10: B114P scFv displayed on yeast (scFv, V domains shown)
VH: QVQLVQSGAELKKPGSSVKISCKSSGYAFSSQWMNWVKQRPGQGLEWIGQIYPEDGDTHMNGKFKGKATLTADKSTSTAYMELSSLTSEDSAVYFCSSSNWDGSYWGQGTLVTVSS
VL: DVVMTQSPLSLPVTLGQPASISCKSSQSLLEEDGNTYLNWLQQRPGQSPRRLIYLVDRLDSGVPDRFSGSGSGTDFTLKISRVEAEDVGVYYCWQGTDLPQTFGGGTKVEIK
notes: as for B2
B10: the Kd in assay [3] came out at 7.14 nM; in assay [4], 3.63 nM; in assay [5], 3.63 nM.

B11: D14P scFv displayed on yeast (scFv, V domains shown)
VH: QVQLVQSGAELKKPGSSVKISCKSSGYAFSSQWMNWVKQRPGQGLEWIGQIYPGDDDTHYNDKFKGKATLTADKSTSTAYMELSSLTSEDSAVYFCSSSNWVGSYWGQGTLVTVSS
VL: DVVMTQSPLSLPVTLGQPASISCKSSQSLLESDGNTYLNWLQQRPGQSPRRLIYLVDRLDLGVPDRFSGSGSGTDFTLKISRVEAEDVGVYYCWQGTDLPQTFGGGTKVEIK
notes: as for B2
B11: the equilibrium dissociation constant (Kd) in assay [3] came out at 5.38 nM; in assay [4], 4.39 nM; in assay [5], 4.39 nM.

B12: H83P scFv displayed on yeast (scFv, V domains shown)
VH: QVQLVQSGAELKKPGSSVKISCKSSGYAFSSQWMNWVKQRPGQGLEWIGQIYPGDGDIHYNDKFKGKATLTADKSTSTAYMELSSLTSEDSAVYFCSSSNWVGSYWGQGTLVTVSS
VL: DVVMTQSPLSLPVTLGQPASISCKSSQSLLESDGNTYLNWLQQRPGQSPRRLIYLVDRLDSGVPDRFSGSGSGTDFTLKISRVEAEDVGVYYCWQGTDLPQTFGGGTKVEIK
notes: as for B2
As to B12, the results for the Kd in assay [3], in assay [4] and in assay [5] were 5.3 nM, 4.08 nM and 4.08 nM, respectively.

B13: B104P scFv displayed on yeast (scFv, V domains shown)
VH: QVQLVQSGAELKKPGSSVKISCKSSGYAFSSQWMNWVKQRPGQGLEWIGQIYPDDGDTHYNDKFKGKATLTADKSTSTAYMELSSLTSEDSAVYFCSSSNWVGSYWGQGTLVTVSS
VL: DVVMTQSPLSLPVTLGQPASISCKSSQSLLEADGNTYLNWLQQRPGQSPRRLIYLVDRLDSGVPDRFSGSGSGTDFTLKISRVEAEDVGVYYCWQGTDLPQTFGGGTKVEIK
notes: as for B2
B13: the Kd in assay [3] stood at 6.38 nM; in assay [4], 4.52 nM; in assay [5], 4.52 nM.
